Assay results reported in US20220403048A1, “BINDING MOLECULES TO ARGINASE II [ARG2]” (Cancer Research Technology Limited, priority 2019, published 2022).

T1: human ARG2 (trimer) (Homo sapiens, UniProt P78540)
T1 construct: human ARG2 (aa23-354); His10 (C); made in house; host or cells: E. coli BL21 (DE3)
T1 sequence (P78540 23-354): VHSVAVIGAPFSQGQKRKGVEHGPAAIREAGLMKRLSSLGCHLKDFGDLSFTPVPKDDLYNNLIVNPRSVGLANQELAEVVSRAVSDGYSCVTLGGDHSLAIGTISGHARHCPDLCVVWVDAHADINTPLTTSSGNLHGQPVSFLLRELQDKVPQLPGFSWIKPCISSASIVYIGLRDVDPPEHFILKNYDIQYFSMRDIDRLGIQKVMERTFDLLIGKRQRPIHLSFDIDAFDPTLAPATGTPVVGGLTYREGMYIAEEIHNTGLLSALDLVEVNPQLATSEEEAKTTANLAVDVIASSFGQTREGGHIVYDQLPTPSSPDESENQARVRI

T2: THP-1 lysate derived human trimeric ARG2 (Homo sapiens, UniProt P78540)
T2 construct: expressed in transfected cells; host or cells: THP-1 cells overexpressing human ARG2 (cell lysate)
T2 sequence (P78540 23-354): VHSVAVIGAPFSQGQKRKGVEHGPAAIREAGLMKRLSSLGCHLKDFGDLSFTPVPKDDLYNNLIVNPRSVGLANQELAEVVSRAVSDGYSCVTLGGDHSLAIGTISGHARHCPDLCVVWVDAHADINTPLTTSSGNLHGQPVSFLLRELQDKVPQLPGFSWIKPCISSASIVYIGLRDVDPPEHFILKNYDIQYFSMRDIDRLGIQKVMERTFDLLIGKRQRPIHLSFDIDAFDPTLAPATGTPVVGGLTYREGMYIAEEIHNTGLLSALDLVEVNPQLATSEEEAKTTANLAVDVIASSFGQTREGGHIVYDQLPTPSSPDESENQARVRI


How the values were obtained:
[1] = target: T1, human ARG2 (trimer); assay: Mechanism of action study (effect on ARG2 Vmax and Km) in trimeric ARG2 enzyme inhibition assay; format: biochemical; conditions: for Km / Vmax: arginine 2.5-250 mM; for mode of action on ARG2: from effects on Vmax and Km
From the text: The mechanism of action of enzyme inhibitors can be broadly divided into competitive, uncompetitive and non-competitive and can be identified as such based on their effects on Km and Vmax.
A competitive inhibitor binds only to free enzyme, often at the active site, causing the affinity of the enzyme for the substrate to be reduced (increased Km) with no change to the maximum enzyme rate (Vmax).
The enzyme's affinity for the substrate is increased (Km is decreased) and the maximum enzyme rate (Vmax) is decreased.
A non-competitive inhibitor binds equally well to free enzyme and enzyme-substrate complex. The enzyme's affinity for the substrate (Km) is unchanged and the maximum enzyme rate (Vmax) is decreased. […]
The mechanism of action of the lead identification clone C0021158 IgG was investigated using the human ARG2 (trimer) enzyme inhibition assay as well as isothermal titration calorimetry.
The enzyme inhibition assay is described in section 1.5 and is a biochemical assay that measures production of urea, the product of L-arginine turnover by ARG2. To investigate the mechanism of action of C0021158 IgG, four point titrations of C0021158 IgG (1000, 100, 30 and 10 nM) were set up in the presence of 11 concentrations of arginine ([…]) and the reaction allowed to proceed for 80, 60, 45, 30, 15 or 5 minutes before the addition of the urea detection reagents O-Phthaldialdehyde and N-(1-Napthyl)ethylenediamine.
Raw data from each separate concentration of C0021158 IgG was plotted as a function of time for each concentration of arginine and fitted using a linear fit (GraphPad Prism) to derive initial velocities (slope values).
Initial velocity data was plotted against arginine concentration for each concentration of C0021158 IgG (FIG. 15A). Each trace was fitted to the Michaelis-Menten model (Y=Vmax*X/(Km+X)) in GraphPad Prism to derive maximum velocity (Vmax) and enzyme/substrate affinity (Km) values at each inhibitor concentration (Table 23).
In the case of C0021158 IgG inhibitor Vmax decreased in the presence of C0021158 IgG inhibitor, ruling out a competitive mode of action and pointing towards an uncompetitive or a non-competitive mode of action. To distinguish non-competitive from uncompetitive modes of action the effect on Km must be assessed. […] This uncharacteristic profile led to poor fitting of the data making it difficult to derive an accurate Km. The lack of accurate Km data means C0021158 IgG cannot be assigned as uncompetitive or non-competitive.

[2] = target: T2, THP-1 lysate derived human trimeric ARG2; assay: THP-1 lysate derived human ARG2 enzyme inhibition assay; format: biochemical; conditions: recombinant human IgG1, lysate without plasma (section 3.3), FIG. 13; read-out: THP-1 lysate ARG2 EIA IC50
Experimental: Anti-ARG2 IgGs were tested for their ability to inhibit mammalian expressed human ARG2 produced in transfected THP-1 cells. To do this cell lysates were prepared from THP-1 cells overexpressing human ARG2 and from wild type THP-1 cells. 350 million cells were suspended in 3 ml tris buffered saline (25 mM Tris+150 mM sodium chloride in dH2O, pH 7.4) and cell lysates prepared by passing through a 26G needle 20 times. A BCA assay was used to measure the protein concentration in the lysate. […] Antibodies were tested alongside N-Hydroxyl-L-Arginine (a small molecule competitive inhibitor of ARG2) as a positive control and CEA6 (irrelevant isotype control antibody) as a negative control. Data points were plotted and IC50 values determined using a four parameter fit in GraphPad Prism (FIG. 11, Table 13).
Anti-ARG2 IgGs were tested for their ability to inhibit to mammalian expressed human ARG2 produced in transfected THP-1 cells. […] Urea detection reagents, O-Phthaldialdehyde (1.5 mM O-Phthaldialdehyde, 7% H2SO4, 0.03% Brij L23) and N-(1-Napthyl)ethylenediamine (1.66 mM N-(1-Napthyl)ethylenediamine, 81 mM Boric acid, 21% H2SO4, 0.03% Brij L23) were mixed 1:1 just prior to use and 80 μl/well were added, incubated for 1 hour at room temperature and absorbance at 505 nm was read on a Pherastar plate reader. […]

mode of action on ARG2 [1] | mode of action on ARG2 ([1]; listed as C0021158 fab) | IC50 [2] | Molecule | Km ([1]; 10 nM C0021158 IgG) | Vmax ([1]; 10 nM C0021158 IgG) | Vmax ([1]; 30 nM C0021158 IgG) | Km ([1]; 100 nM C0021158 IgG) | Vmax ([1]; 100 nM C0021158 IgG) | Vmax ([1]; 1 μM C0021158 IgG)
not competitive | allosteric inhibitor | – | C0021158 IgG: anti-ARG2 antibody, VH SEQ ID NO: 282, VL SEQ ID NO: 287; IgG and Fab versions carry these sequences (antibody, listed as Homo sapiens, V domains shown, C0021158 IgG) VH: EVQLLESGGGLVQPGGSLRLSCAASGFTFRYEVAAWVRQAPGKGLEWVSAISGPIPKGYYADSVKGRFTISRDNSKNTLYLQMNSLRAEDTAVYYCARLRADLGLYMDLWGRGTLVTVSS VL: QSVLTQPPSVSAAPGQKVTISCSGSSSNIGNHYVSWYQQLPGTAPKLLIYDNSERTAGVPDRFSGSKSGTSATLGITGLQTGDEADYYCGTWDELTSNLVFGGGTKLTVL | 1640 µM | 148.5 AU ms^−1 | 89.23 AU ms^−1 | 590 µM | 112.8 AU ms^−1 | 103.4 AU ms^−1
– | – | 5.36 nM | C0021158: anti-ARG2 antibody, second generation lead, VH SEQ ID NO: 272, VL SEQ ID NO: 277 (antibody, listed as Homo sapiens, V domains shown, C0021158) VH: EVQLLESGGGLVQPGGSLRLSCAASGFTFRYEVAAWVRQAPGKGLEWVSAISGPIPKGYYADSVKGRFTISRDNSKNTLYLQMNSLRAEDTAVYYCARLRADLGLYMDLWGRGTLVTVPS VL: QSVLTQPPSVSAAPGQKVTISCSGSSSNIGNHYVSWYQQLPGTAPKLLIYDNSERTAGVPDRFSGSKSGTSATLGITGLQTGDEADYYCGTWDELTSNLVFGGGTKLTVL | – | – | – | – | – | –
